The record followed here is patent publication EP4431526A1 (Emfret Analytics GmbH & Co. KG, dated 2024).

Numbering of substitutions follows the chain as printed. Ends that are not written are not given here.

Experiment [1] addresses T1, human GPVI-Fc fusion protein (human, UniProt Q9HCN6 21-267, limits assumed).
T1 construct: also called human GPVI protein antigen
T1 sequence (looked up): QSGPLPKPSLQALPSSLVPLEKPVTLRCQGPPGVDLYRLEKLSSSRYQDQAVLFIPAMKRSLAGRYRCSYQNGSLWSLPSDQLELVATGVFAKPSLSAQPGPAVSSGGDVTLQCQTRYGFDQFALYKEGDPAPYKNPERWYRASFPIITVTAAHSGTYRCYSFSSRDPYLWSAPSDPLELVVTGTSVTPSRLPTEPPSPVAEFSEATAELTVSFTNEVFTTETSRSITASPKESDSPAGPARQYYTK
As to the kind of experiment: BLI (Octet), GPVI-Fc on biosensor, 1:1 fit. A general note: In BLI a coated tip is dipped into the sample, and binding shifts an interference pattern.

Experiment [2] has as its target human GPVI, membrane expressed on platelets (human) (UniProt Q9HCN6). Nature of the experiment: cell-based or functional assay.
For experiment [3] the target is unchanged. As to the kind of experiment: flow cytometry ex vivo, hGP6^tg/tg platelets, 48 h after 4 mg/kg i.v. A general note: In flow cytometry, cells or beads pass a laser one at a time.
For experiment [4] the target is unchanged. As to the kind of experiment: flow cytometry ex vivo, hGP6^tg/tg platelets, 72 h after 4 mg/kg i.v.
Experiment [5] addresses T1, human GPVI-Fc fusion protein. As to the kind of experiment: method not stated at this place (BLI elsewhere); target printed as 'human GPVI'.
Experiment [6] has as its target human GPVI, membrane expressed on platelets (human) (UniProt Q9HCN6). As to the kind of experiment: flow cytometry ex vivo, hGP6^tg/tg platelets, competition with Emf3-FITC, 1 h after 4 mg/kg i.v.
Experiment [7] shares this target. Nature of the experiment: flow cytometry ex vivo, hGP6^tg/tg platelets, competition with Emf3-FITC, 24 h after 4 mg/kg i.v.
Experiment [8] has the same target. As to the kind of experiment: flow cytometry ex vivo, hGP6^tg/tg platelets, competition with Emf3-FITC, 48 h after 4 mg/kg i.v.
Experiment [9] has the same target. Nature of the experiment: flow cytometry ex vivo, hGP6^tg/tg platelets, competition with Emf3-FITC, 72 h after 4 mg/kg i.v.
Experiment [10] has the same target. Nature of the experiment: flow cytometry ex vivo, hGP6^tg/tg platelets, competition with Emf3-FITC, 96 h after 4 mg/kg i.v.
For experiment [11] the target is unchanged. As to the kind of experiment: flow cytometry ex vivo, hGP6^tg/tg platelets, competition with Emf3-FITC, 120 h after 4 mg/kg i.v.
For experiment [12], the target named is T2, GPVI peptide 201V-E215 (human, not fully specified).
T2 construct: On the array as peptide-cellulose conjugate; as soluble (cleavable, Fmoc-rink-amide linker) peptide in the neutralisation; also called Val201 to Glu215
T2 peptide: VVTGTSVTPSRLPTE
As to the kind of experiment: peptide microarray, HRP anti-mouse IgG.

In experiment [13] the target is T3, GPVI peptide 246S-P260 (human, not fully specified).
T3 construct: On the array as peptide-cellulose conjugate; as soluble (cleavable, Fmoc-rink-amide linker) peptide in the neutralisation; also called Ser246 to Pro260
T3 peptide: SITASPKESDSPAGP
Nature of the experiment: peptide microarray, HRP anti-mouse IgG.

The target in experiment [14] is T1, human GPVI-Fc fusion protein. Nature of the experiment: ratio of KD values (0.46 nM against 0.195 nM).
Experiment [15] has as its target human GPVI, membrane expressed on platelets (human) (UniProt Q9HCN6). Nature of the experiment: flow cytometry, hGP6^tg/tg platelets, anti-human IgG-Fab detection, EMA601 at 0.1 ug/mL.
Experiment [16] shares this target. As to the kind of experiment: flow cytometry, hGP6^tg/tg platelets, anti-human IgG-Fab detection, EMA601 at 0.2 ug/mL.
For experiment [17] the target is unchanged. Nature of the experiment: flow cytometry ex vivo, hGP6^tg/tg platelets, anti-human IgG-Fab-FITC, 1 h after 4 mg/kg i.v.

B1: HC3 LC4 humanized Fab (Fab, V domains shown)
VH: QVQLVESGGGVVQPGRSLRLSCVASGFSLTSYGVTWVRQAPGKGLEWVAVIWGDGSTNYHSGLRSRFTISRDNSKNTMFLQMNSLRADDTAVYYCAKPIYYDFDDDAMDYWGQGTLVTVSS
VL: DIVMTQSPATLSLSPGDRATLSCKASQNVGTYVAWYQQKPGQAPRLLIYSASYRCSGIPARFSGSGSGTDFTLTISSLQSEDFAVYYCHQYNNYPLTFGGGTKVEIKR
notes: also called VH3:VL4
One may read the Kd as a measure of binding affinity in units of concentration. What is called koff is the rate constant with which the complex falls apart. Higher therefore signals fast dissociation. The kon is the rate constant with which the complex forms. A low value points to slower complex formation. Turning to B1, in [1], the Kd was 0.431 nM, the koff turned out to be 0.000618 s⁻¹ and the on-rate constant (kon) turned out to be 1.43e+06 M⁻¹ s⁻¹.

B2: HC4 LC4 humanized Fab (Fab, V domains shown)
VH: B1 VH with V23A, A40S, F67L, M78L, F79Y, Q81E, A87T, D88E, V92T, L116K
VL: B1 VL
notes: also called VH4:VL4
In experiment [1], B2 registered a Kd of 0.572 nM, a koff of 0.000412 s⁻¹ and an on-rate (kon) of 720000 M⁻¹ s⁻¹.

B3: Emf6.1^Fab (Fab, V domains shown)
VH: QVQLKESGPGLVQPSQSLSITCTVSGFSLTSYGVTWVRQPPGKGLEWLGVIWGDGSTNYHSGLRSRLSISRDDSKSQVFLKLNSLQTDDTATYYCAKPIYYDFDDDAMDYWGQGTSVTVSS
VL: DIVMTQSQKFMSTSVGDRVSVTCKASQNVGTYVAWFQQKPGQSPKTLIYSASYRCSGVPDRFTGSGSGTDFTLTISNVQSDDLAEYFCHQYNNYPLTFGAGTKLELR
notes: also called Fab fragments of Emf6.1
As for B3, the thrombus volume on collagen under flow (1000 s^-1), human blood in experiment [2] was 75 % reduction. The receptor occupancy is > 50% in [3] and > 35% in experiment [4]. Moreover, in experiment [5], the affinity, expressed as Kd, was 0.46 nM. Besides, the % of the binding epitopes on GPVI occupied is 90% in experiment [6]; 76% in experiment [7]; 50% in [8]; 36% in experiment [9]; 19% in experiment [10]; 13% in experiment [11].

B4: Emf6.1 IgG (mouse IgG2a kappa) (antibody, V domains shown)
VH: B3 VH
VL: B3 VL
notes: Mouse monoclonal IgG2a kappa from hybridoma (subclone of Emf6)
In the case of B4, the binding result in experiment [12] and in experiment [13] was “binds” throughout.

B5: HC1 LC2 humanized Fab (EMA601) (Fab, V domains shown)
VH: QVQLQESGPGLVKPSETLSLTCTASGFSLTSYGVTWIRQPPGKGLEWIGVIWGDGSTNYHSGLRSRVTISVDTSKSQFSLKLSSVTAADTAVYYCAKPIYYDFDDDAMDYWGQGTLVTVSS
VL: DIQMTQSPSSLSASVGDRVTITCKASQNVGTYVAWFQQRPGKAPKSLIYSASYRCSGVPSKFSGSGSGTDFTLTINSLQPEDFATYYCHQYNNYPLTFGQGTKVEIKR
notes: also called EMF601; VH1:VL2
As to B5, in [2], the collagen-induced aggregation of washed human platelets amounted to 50 % reduction; the potency to inhibit GPVI function in human and hGP6^tg/tg platelets in vitro, against ACT017 was determined as 10 fold. Besides, the “fold increase of affinity against Emf6.1^Fab” value in experiment [14] was ~2.3 fold. Also, in [1], the Kd is 0.195 nM, the koff stood at 0.000123 s⁻¹ and the kon was found to be 628000 M⁻¹ s⁻¹. Also, the % of the epitopes occupied compared to the highest tested concentration (50 µg/mL) in experiment [15] is 57.3%. The % of the epitopes occupied compared to the highest tested concentration (50 µg/mL) in [16] turned out to be 86.2%. The same molecule registered a fold amount of bound Fab against ACT017 in experiment [17] of 1.8 fold.

B6: HC4 LC2 humanized Fab (Fab, V domains shown)
VH: B1 VH with V23A, A40S, F67L, M78L, F79Y, Q81E, A87T, D88E, V92T, L116K
VL: B5 VL
notes: also called VH4:VL2
In experiment [1], B6 had a Kd of 0.395 nM, a dissociation rate constant (koff) of 0.000508 s⁻¹ and a kon of 1.29e+06 M⁻¹ s⁻¹.

B7: HC4 LC3 humanized Fab (Fab, V domains shown)
VH: B1 VH with V23A, A40S, F67L, M78L, F79Y, Q81E, A87T, D88E, V92T, L116K
VL: B5 VL with M4L, S10T, F36Y, R39K, S46L, K61R, D70E, N76S, E81D, A84T
notes: also called VH4:VL3
On to B7, for which, in [1], the affinity, expressed as Kd, was 0.593 nM; the koff was determined as 0.000655 s⁻¹; the kon was 1.1e+06 M⁻¹ s⁻¹.

B8: HC3 LC3 humanized Fab (Fab, V domains shown)
VH: B1 VH
VL: B5 VL with M4L, S10T, F36Y, R39K, S46L, K61R, D70E, N76S, E81D, A84T
notes: also called VH3:VL3
In experiment [1], B8 came in with a Kd of 0.299 nM, a koff of 0.000561 s⁻¹ and a kon of 1.87e+06 M⁻¹ s⁻¹.

B9: HC4 LC1 humanized Fab (Fab, V domains shown)
VH: B1 VH with V23A, A40S, F67L, M78L, F79Y, Q81E, A87T, D88E, V92T, L116K
VL: B5 VL with D1E, Q3V, M4L, R39K, N76S, V104L
notes: also called VH4:VL1
In experiment [1], B9 came in with a Kd of 0.425 nM, a koff of 0.000339 s⁻¹ and a kon of 797000 M⁻¹ s⁻¹.

B10: HC3 LC2 humanized Fab (Fab, V domains shown)
VH: B1 VH
VL: B5 VL
notes: also called VH3:VL2
In experiment [1], B10 returned an equilibrium dissociation constant (Kd) of 0.215 nM, a koff of 0.000362 s⁻¹ and a kon of 1.68e+06 M⁻¹ s⁻¹.
